Measured values published in patent publication US20240270826A1 (NATIONAL RESEARCH COUNCIL OF CANADA, published 2024).

How the values were obtained:
[1] = target: T1, SARS-CoV-2 S1-NTD (aa16-305) (SARS-CoV-2 Wuhan, UniProt P0DTC2 16-305); experiment: ELISA
[2] = target: T2, SARS-CoV-2 S1 (aa16-685) (Wuhan) (SARS-CoV-2 Wuhan, UniProt P0DTC2 16-685); experiment: ELISA
T2 construct: NRC; FLAG, 6xHis tags

[3] = target: T3, SARS-CoV-2 S on CHO-S cells (SARS-CoV-2, UniProt P0DTC2 14-1273); experiment: flow cytometry, CHO-S cells
T3 construct: whole, on cells

[4] = target: T4, SARS-CoV-2 S2 (aa686-1208) (Wuhan) (SARS-CoV-2 Wuhan, UniProt P0DTC2 686-1208); experiment: ELISA
T4 construct: NRC; FLAG, 6xHis tags

[5] = target: SARS-CoV spike (S) (SARS-CoV, UniProt P59594 14-1195); experiment: ELISA
[6] = target: T1, SARS-CoV-2 S1-NTD (aa16-305); experiment: ELISA, coated antigen, apparent EC50
[7] = target: T2, SARS-CoV-2 S1 (aa16-685) (Wuhan); experiment: ELISA, coated antigen, apparent EC50
[8] = target: T5, SARS-CoV-2 spike trimer S (Wuhan, SmT1) (SARS-CoV-2 Wuhan); experiment: ELISA, coated antigen, apparent EC50
T5 construct: extracellular domain

Binder	binding result [1]	binding result [2]	Bmax [3]	EC50 [3] [nM]	binding result [4]	binding result [5]	EC50 [6] [nM]	EC50 [7] [nM]	EC50 [8] [nM]
NRCoV2-S2F3 VHH-Fc (Fc fusion, bivalent VHH-Fc) EVQLVQSGGGLVQAGGSLRLSCATSVRILSVPAMGWYRQAPGKEREMVAVITSGGSTNYADSVKGRFTISRDNAKNTVYLQMNSLKLEDTAVYQCNLRDILSQPFWGQGTQVTVSS	no binding (tested: 13 nM)	no binding (tested: 13 nM)	6950	2.7					
NRCoV2-MRed07 VHH-Fc (Fc fusion, bivalent VHH-Fc) EVQLVESGGGLVQPGGSLTLSCAASGSIGPFNTMGWYRQAPGNQREPAAIITRGGVTNYADSVKGRFTISRDNAKNAVYLQMDSLKPDDTAVYYCYANYGWAIPYWGNGTQVTVSS			8670	132	no binding (tested: 13 nM)	no binding (tested: 13 nM)			
NRCoV2-MRed18 VHH-Fc (Fc fusion, bivalent VHH-Fc) EVQLVESGGGLVQPGGSLRLSCAASTTVFGRNAMGWYRQAPGKERELVATVSDGGTPNYADSVKGRFTISRDNAKNTIYLQMNSLEPEDTAVYYCNYYNYYYGRNFWGQGTQVTVSS	no binding (tested: 13 nM)	no binding (tested: 13 nM)	10200	0.9					
NRCoV2-05 VHH-Fc (Fc fusion, bivalent VHH-Fc) EVKLVQSGGGLVQPGGSLRLSCAASGFIFSNYAMNWVRQAPGKGLEWVSGINSGGGDTRYADSVKGRFTVSRDNAKNTLYLQMNSLKPEDTGVYYCSKGPVSSYYGSGYDYRGQGTQVTVSS	no binding (tested: 13 nM)		17400	0.5	no binding (tested: 13 nM)	no binding (tested: 13 nM)			
NRCoV2-10 VHH-Fc (Fc fusion, bivalent VHH-Fc) QLQLQESGGGLVQPGGSLTLSCAASGNTFSRSNMHWYRQAPGAQREWVAAISSRGISTYAYSAKGRFTISRDNAKNTVSLQMNSLKPEDTAVYYCYAADDLGDYWGQGTQVTVSS	no binding (tested: 13 nM)		28000	1.3	no binding (tested: 13 nM)	no binding (tested: 13 nM)			
NRCoV2-SR03 VHH-Fc (Fc fusion, bivalent) AVQLVDSGGGLVQAGGSLRLSCAASGSIFSNNHMGWYRQAPGKQRELVAAISSGGKTNYADFAKGRFTISRDNAKNMVYLQMNSLKPEDTAVYYCNRGGWEYRSSYYIMGPHWGQGTQVTVSS							0.17	0.2	0.16
NRCoV2-14 VHH-Fc (Fc fusion, bivalent VHH-Fc) EVQLVSSGGGLVQAGGSLRLSCEASGTTFSHYAVGWYRQAPGKQREWVASISVFGSTTYGGSVAGRFTISRDNDKNTVDLQMNSLKPEDTAVYYCHAVNADIGGDYWGQGTQVTVSS	no binding (tested: 13 nM)		18800	0.9	no binding (tested: 13 nM)	no binding (tested: 13 nM)			
NRCoV2-02 VHH-Fc (Fc fusion, bivalent VHH-Fc) EVQLVESGGGLVQAGGSLRLSCAASGFTFSNYAMNWVRQAPGKGLEWVSGISGRGDDTRYADSVKGRFTISRDNAKNTLFLQMRSLRPEDTGVYRCTKGPDLYYFGSGYSDRGQGTQVTVSS	no binding (tested: 13 nM)		18600	0.3	no binding (tested: 13 nM)	no binding (tested: 13 nM)			
NRCoV2-MRed19 VHH-Fc (Fc fusion, bivalent VHH-Fc) EVQLVESGGGLVQPGGSLRLSCAASTIIFKGQTMGWFRQAPGNERELVATMTTSGSANYADSVKGRFTISRDNEKTVTLQMNSLKPEDTALYYCYMHSVYYGIDYWGKGTQVTVSS	no binding (tested: 13 nM)	no binding (tested: 13 nM)	5480	1.3					
NRCoV2-MRed20 VHH-Fc (Fc fusion, bivalent VHH-Fc) EVQLVESGGGSVQAGGSLRLSCAASGLSFSSYDMGWFRQAPGKEREFVAAIRESGSGTYYADSVKGRFTISRDNAKNTVYLQVSSLKPEDTAVYTCAAKPPFYGSGTYSTPRAYLYWGQGTQVTVSS	no binding (tested: 13 nM)	no binding (tested: 13 nM)	6660	6.5					
NRCoV2-04 VHH-Fc (Fc fusion, bivalent VHH-Fc) AVQLVDSGGGLVQPGGSLRLSCAASGSPFSNVVMAWYRQAPGKQRERVAFISGGGIADYIMSVKGRFTISRDNAKNTVYLQMNSLKPEDTAVYYCWSSYESTWGQGTQVTVSS	no binding (tested: 13 nM)		15500	1.3	no binding (tested: 13 nM)	no binding (tested: 13 nM)			
NRCoV2-SR01 VHH-Fc (Fc fusion, bivalent) EVQLVQSGGGSVQAGGSLRLSCVASGFTFDNYAIGWFRQAPGKEREGVSCISGNGGVTIYADSVKGRFTISRDNAKNLVYLQMNSLKPEDTAVYYCAATGIRSTWSVYGCSRLAGPYDYWGQGTQVTVSS							0.19	0.23	0.13
NRCoV2-SR02 VHH-Fc (Fc fusion, bivalent) EVQLVDSGGGLVQAGGSLRLSCTASEFTLNYYSIGWFRQSPGKEREGVSCIRYSGGGIDYADSVKGRFTISRDNAKNTVYLTMNSLKPEDTAVYYCAADRLYSRACPTAGGRNYWGQGTQVTVSS							0.34	0.13	0.11
NRCoV2-MRed22 VHH-Fc (Fc fusion, bivalent VHH-Fc) EVQLVESGGGLVQPGGSLRLSCAASGSVFASNAMGWYRQAPGKQRELVATISSRGSTNYADSVKGRFTISRDNAKNTVYLQMNSLGPEDTAVYYCNAREFTGFDYWGQGTQVTVSS	no binding (tested: 13 nM)	no binding (tested: 13 nM)	5320	0.2		no binding (tested: 13 nM)			
NRCoV2-MRed06 VHH-Fc (Fc fusion, bivalent VHH-Fc) EVQLVESGGGLVQAGGSLRLSCAASGFTLAYYAIGWFRQAPGKEREGVSCISSSDGSAHYADSVKGRFTISRDNAKNTVSLQMNSLKPEDTAVYYCATDSFSSCSDYESGMDFWGKGTQVTVSS			9020	8.5	no binding (tested: 13 nM)	no binding (tested: 13 nM)			
NRCoV2-03 VHH-Fc (Fc fusion, bivalent VHH-Fc) EVQLVSSGGGLVQAGGSLRLSCTASGITFSYYAMGWYRQAPGQPRELVASMSNMDSTIYADSVKGRFTISRDNAKTTIYLQMNNLKPEDTAVYFCNIYGPTYSTRRNEYWGQGTQVTVSS	no binding (tested: 13 nM)		16200	78.9	no binding (tested: 13 nM)	no binding (tested: 13 nM)			
NRCoV2-06 VHH-Fc (Fc fusion, bivalent VHH-Fc) EVQLVQSGGGLVQAGESLRLSCAASVSTFSSYAMGWYRQAPGKQRELVASIGFVGATYYIDSVKGRFTISRDNAKKTAYLQMNDLKPDDTAVYYCNARHYGGSEYWGQGTQVTVSS	no binding (tested: 13 nM)		13600	8.1	no binding (tested: 13 nM)	no binding (tested: 13 nM)			
NRCoV2-MRed03 VHH-Fc (Fc fusion, bivalent VHH-Fc) EVQLVESGGGLVQPGGSLRLSCAAIGFTLDYYAIGWFRQAPGKEREGVSCISSSDGSTYYADSVKGRFTISRDNAKNTVYLQMNSLKPEDTAVYYCATDAFATCDSWYAQIAQYDFRGQGTQVTVSS			12000	15.1	no binding (tested: 13 nM)	no binding (tested: 13 nM)			
NRCoV2-S2G4 VHH-Fc (Fc fusion, bivalent VHH-Fc) QVQLVQSGGGLVQAGGSLTLSCAPSGSTFSGYATNWYRQAPGKQRELVATISSDGDKNYADSVKGRFTISRDNAKNTVYLQMNSLKPEDTAVYYCNKHWWTGDWWGQGTQVTVSS	no binding (tested: 13 nM)	no binding (tested: 13 nM)	6900	0.3					
NRCoV2-S2A4 VHH-Fc (Fc fusion, bivalent VHH-Fc) QVQLVQSGGGLVQAGGSLRLSCAVSGSPFRSNVMEWYRQAPGKQRELVASISTGGSRTYTDSVKGRFTISRDNAKNEAFLQMNSLKPEDTAVYYCHAAARDSHGIYLLDTWGQGTQVTVSS	no binding (tested: 13 nM)	no binding (tested: 13 nM)	6860	0.1					
NRCoV2-S2G3 VHH-Fc (Fc fusion, bivalent VHH-Fc) QVQLVQSGGGSVQAGGSLRLSCAASGSTFGIFLMGWRRQAPGKQRELVAHITSGGATNYADSVKGRFTISRDNAKNTVYLQMNSLEPEDTAVYYCYTTKRDDASVYWGQGTQVTVSS	no binding (tested: 13 nM)	no binding (tested: 13 nM)	7530	0.3					
